The values that follow come from the supplement of paper PMC7125110.

B1: glmS ribozyme (parent)
chain: AUAAAAGCGCCAGAACUACAGAAAUGUAGUUGACGAGGAGGAGGUUUAUCGAAUUUUCGGCGGAUGCCUCCAAA

± gives the standard error. This sample holds only a part of the variants without activity.

Holding throughout (conditions): with glucosamine-6-phosphate
The variants in series [1] derive from B1. The series can be described thus: self-cleavage kobs at 40 uM GlcN6P; higher = faster cleavage; RNA array. The gist of the method:
(§1)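 A hybridised Cy3 probe tracked barcoded ribozyme variants, transcribed in situ by E. coli RNA polymerase on sequenced MiSeq chips, at 37 °C. The variants received 40 μM to 10 mM glucosamine-6-phosphate in HEPES/KCl/Mg(OAc)2 buffer. kobs came from decay fits and kcat and KM from weighted Michaelis–Menten fits.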

The variants in series [2] derive from B1. Kind of series: self-cleavage kobs at 160 uM GlcN6P; higher = faster cleavage; RNA array. The gist of the method: as §1
The variants in series [3] derive from B1. The series can be described thus: self-cleavage kobs at 640 uM GlcN6P; higher = faster cleavage; RNA array. The gist of the method:
as §1

In series [4] the parent is B1. Kind of series: self-cleavage kobs at 2500 uM GlcN6P; higher = faster cleavage; RNA array. In outline: as §1
In series [5] the parent is B1. The series can be described thus: self-cleavage kobs at 10000 uM GlcN6P; higher = faster cleavage; RNA array. The gist of the method: as §1

With A6G G38C, the “self-cleavage kobs at 40 uM GlcN6P” value in the series with glucosamine-6-phosphate [1] is under 1e-05 s⁻¹. For the same variant, the “self-cleavage kobs at 160 uM GlcN6P” value with glucosamine-6-phosphate [2] was under 1e-05 s⁻¹. The “self-cleavage kobs at 640 uM GlcN6P” value with glucosamine-6-phosphate [3] was under 1e-05 s⁻¹. Moreover, the “self-cleavage kobs at 2500 uM GlcN6P” value with glucosamine-6-phosphate [4] is under 1e-05 s⁻¹. Besides, in the series with glucosamine-6-phosphate [5], the “self-cleavage kobs at 10000 uM GlcN6P” value was under 1e-05 s⁻¹.

Turning to G29C U54A, the “self-cleavage kobs at 40 uM GlcN6P” value with glucosamine-6-phosphate [1] was 6.64e-05 ± 1.5e-05 s⁻¹. In addition, in the series with glucosamine-6-phosphate [3], the “self-cleavage kobs at 640 uM GlcN6P” value was found to be 0.000499 ± 8.4e-05 s⁻¹. For the same variant, in the series with glucosamine-6-phosphate [4], the “self-cleavage kobs at 2500 uM GlcN6P” value came to 0.000928 ± 0.00025 s⁻¹. Also, the “self-cleavage kobs at 10000 uM GlcN6P” value in the series with glucosamine-6-phosphate [5] was found to be 0.00381 ± 0.00046 s⁻¹.

For the variant C16U A33U C68A, the “self-cleavage kobs at 40 uM GlcN6P” value with glucosamine-6-phosphate [1] is under 1e-05 s⁻¹. Further, the “self-cleavage kobs at 160 uM GlcN6P” value in the series with glucosamine-6-phosphate [2] was under 1e-05 s⁻¹.

Regarding G43U U47G, in the series with glucosamine-6-phosphate [1], the “self-cleavage kobs at 40 uM GlcN6P” value was under 1e-05 s⁻¹. Moreover, the “self-cleavage kobs at 160 uM GlcN6P” value with glucosamine-6-phosphate [2] was under 1e-05 s⁻¹.

On to A33G C68U, for which, in the series with glucosamine-6-phosphate [1], the “self-cleavage kobs at 40 uM GlcN6P” value is under 1e-05 s⁻¹. Besides, the “self-cleavage kobs at 10000 uM GlcN6P” value with glucosamine-6-phosphate [5] is under 1e-05 s⁻¹.

In the case of U30A G63C, the “self-cleavage kobs at 40 uM GlcN6P” value with glucosamine-6-phosphate [1] was under 1e-05 s⁻¹. Further, in the series with glucosamine-6-phosphate [2], the “self-cleavage kobs at 160 uM GlcN6P” value was under 1e-05 s⁻¹. In the series with glucosamine-6-phosphate [4], the “self-cleavage kobs at 2500 uM GlcN6P” value is under 1e-05 s⁻¹. Besides, in the series with glucosamine-6-phosphate [5], the “self-cleavage kobs at 10000 uM GlcN6P” value is under 1e-05 s⁻¹.

With G21U A39G, the “self-cleavage kobs at 40 uM GlcN6P” value with glucosamine-6-phosphate [1] was determined as 0.00105 ± 0.00032 s⁻¹.

On to U49A A52C, for which the “self-cleavage kobs at 40 uM GlcN6P” value in the series with glucosamine-6-phosphate [1] was under 1e-05 s⁻¹. Moreover, the “self-cleavage kobs at 160 uM GlcN6P” value with glucosamine-6-phosphate [2] was under 1e-05 s⁻¹. The “self-cleavage kobs at 640 uM GlcN6P” value in the series with glucosamine-6-phosphate [3] was under 1e-05 s⁻¹. For the same variant, the “self-cleavage kobs at 10000 uM GlcN6P” value with glucosamine-6-phosphate [5] was under 1e-05 s⁻¹.

C8A A12U: the “self-cleavage kobs at 40 uM GlcN6P” value in the series with glucosamine-6-phosphate [1] is under 1e-05 s⁻¹. In addition, in the series with glucosamine-6-phosphate [3], the “self-cleavage kobs at 640 uM GlcN6P” value was under 1e-05 s⁻¹. Moreover, in the series with glucosamine-6-phosphate [4], the “self-cleavage kobs at 2500 uM GlcN6P” value was under 1e-05 s⁻¹. Besides, in the series with glucosamine-6-phosphate [5], the “self-cleavage kobs at 10000 uM GlcN6P” value was under 1e-05 s⁻¹.

With C10U G29C C61A, the “self-cleavage kobs at 40 uM GlcN6P” value in the series with glucosamine-6-phosphate [1] was under 1e-05 s⁻¹.

C11U U69G: the “self-cleavage kobs at 40 uM GlcN6P” value in the series with glucosamine-6-phosphate [1] stood at 5.87e-05 ± 1.4e-05 s⁻¹. In the series with glucosamine-6-phosphate [2], the “self-cleavage kobs at 160 uM GlcN6P” value stood at 7.55e-05 ± 2.7e-05 s⁻¹. The “self-cleavage kobs at 640 uM GlcN6P” value in the series with glucosamine-6-phosphate [3] came out at 0.000286 ± 6.5e-05 s⁻¹. The “self-cleavage kobs at 2500 uM GlcN6P” value with glucosamine-6-phosphate [4] amounted to 9.51e-05 ± 2.1e-05 s⁻¹. Besides, the “self-cleavage kobs at 10000 uM GlcN6P” value with glucosamine-6-phosphate [5] came to 5.87e-05 ± 8.8e-06 s⁻¹.

Regarding A6U C11U C16A U30C C50G, in the series with glucosamine-6-phosphate [1], the “self-cleavage kobs at 40 uM GlcN6P” value was 0.000167 ± 2.9e-05 s⁻¹. Further, the “self-cleavage kobs at 2500 uM GlcN6P” value with glucosamine-6-phosphate [4] was 0.000224 ± 9e-05 s⁻¹. Also, in the series with glucosamine-6-phosphate [5], the “self-cleavage kobs at 10000 uM GlcN6P” value is 0.000181 ± 2.9e-05 s⁻¹.

Turning to A42G U47G C61U U69G, in the series with glucosamine-6-phosphate [1], the “self-cleavage kobs at 40 uM GlcN6P” value is under 1e-05 s⁻¹. Besides, in the series with glucosamine-6-phosphate [4], the “self-cleavage kobs at 2500 uM GlcN6P” value was under 1e-05 s⁻¹.

Consider C50G G62A C68A, for which the “self-cleavage kobs at 40 uM GlcN6P” value with glucosamine-6-phosphate [1] came out at 6.73e-05 ± 1.6e-05 s⁻¹. Besides, in the series with glucosamine-6-phosphate [5], the “self-cleavage kobs at 10000 uM GlcN6P” value amounted to 9.9e-05 ± 2.3e-05 s⁻¹.

C8A U30G U31C: the “self-cleavage kobs at 40 uM GlcN6P” value in the series with glucosamine-6-phosphate [1] was under 1e-05 s⁻¹. Moreover, in the series with glucosamine-6-phosphate [4], the “self-cleavage kobs at 2500 uM GlcN6P” value is under 1e-05 s⁻¹. Moreover, the “self-cleavage kobs at 10000 uM GlcN6P” value with glucosamine-6-phosphate [5] was under 1e-05 s⁻¹.

With G44U A64U, the “self-cleavage kobs at 40 uM GlcN6P” value with glucosamine-6-phosphate [1] was under 1e-05 s⁻¹. Also, the “self-cleavage kobs at 160 uM GlcN6P” value with glucosamine-6-phosphate [2] was under 1e-05 s⁻¹. Further, in the series with glucosamine-6-phosphate [3], the “self-cleavage kobs at 640 uM GlcN6P” value is under 1e-05 s⁻¹. Moreover, the “self-cleavage kobs at 2500 uM GlcN6P” value with glucosamine-6-phosphate [4] is under 1e-05 s⁻¹. The “self-cleavage kobs at 10000 uM GlcN6P” value with glucosamine-6-phosphate [5] was under 1e-05 s⁻¹.

With G9A G13A G43U G60A, the “self-cleavage kobs at 40 uM GlcN6P” value with glucosamine-6-phosphate [1] was under 1e-05 s⁻¹.

With C8A G62A, the “self-cleavage kobs at 40 uM GlcN6P” value in the series with glucosamine-6-phosphate [1] is under 1e-05 s⁻¹. Also, in the series with glucosamine-6-phosphate [2], the “self-cleavage kobs at 160 uM GlcN6P” value was under 1e-05 s⁻¹. Also, in the series with glucosamine-6-phosphate [3], the “self-cleavage kobs at 640 uM GlcN6P” value was under 1e-05 s⁻¹. In the series with glucosamine-6-phosphate [5], the “self-cleavage kobs at 10000 uM GlcN6P” value was under 1e-05 s⁻¹.

As for G51C C58G, in the series with glucosamine-6-phosphate [1], the “self-cleavage kobs at 40 uM GlcN6P” value is under 1e-05 s⁻¹.

Regarding A12U A33G G63A, in the series with glucosamine-6-phosphate [1], the “self-cleavage kobs at 40 uM GlcN6P” value was under 1e-05 s⁻¹.

On to A14C G44C C50U U65G, for which, in the series with glucosamine-6-phosphate [1], the “self-cleavage kobs at 40 uM GlcN6P” value was under 1e-05 s⁻¹.

For the variant G9U G40U G44C G60U, in the series with glucosamine-6-phosphate [1], the “self-cleavage kobs at 40 uM GlcN6P” value was under 1e-05 s⁻¹. For the same variant, the “self-cleavage kobs at 10000 uM GlcN6P” value with glucosamine-6-phosphate [5] was under 1e-05 s⁻¹.

Regarding A14U G63A, the “self-cleavage kobs at 40 uM GlcN6P” value with glucosamine-6-phosphate [1] was under 1e-05 s⁻¹. The “self-cleavage kobs at 640 uM GlcN6P” value in the series with glucosamine-6-phosphate [3] was under 1e-05 s⁻¹.

C8G U31G: in the series with glucosamine-6-phosphate [1], the “self-cleavage kobs at 40 uM GlcN6P” value is under 1e-05 s⁻¹. The “self-cleavage kobs at 160 uM GlcN6P” value in the series with glucosamine-6-phosphate [2] is under 1e-05 s⁻¹. The “self-cleavage kobs at 640 uM GlcN6P” value in the series with glucosamine-6-phosphate [3] was under 1e-05 s⁻¹. The “self-cleavage kobs at 2500 uM GlcN6P” value in the series with glucosamine-6-phosphate [4] was under 1e-05 s⁻¹.
